# System: Escherichia coli TOP10
# Assay: shrunken log2 fold change of peptide-encoding DNA abundance (4.5 h post-induction vs induction); higher = less antimicrobial activity (less host growth inhibition)
# Settings: time post-induction: 4.5 h; library: site-saturation at positions 5, 18, 19, 20
# 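Also: peptides expressed intracellularly from a pBAD plasmid library in pooled LB shake-flask culture, induced with 0.3% L-arabinose, DNA abundance read by NGS, three biological replicates, DESeq2 with apeglm shrinkage.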
row,Sequence,shrunken log2 fold change
1,RRIRFRPPRLPRPRPRPHERPRP,0.0652
2,RRIRPRPPRLPRPRPRPLLIPRP,-0.758
3,RRIRLRPPRLPRPRPRPIISPRP,-0.513
4,RRIRPRPPRLPRPRPRPLMTPRP,-0.0836
5,RRIRRRPPRLPRPRPRPNCPPRP,0.039
6,RRIRSRPPRLPRPRPRPALHPRP,0.16
7,RRIRTRPPRLPRPRPRPWHVPRP,0.0162
8,RRIRSRPPRLPRPRPRPARGPRP,0.574
9,RRIRCRPPRLPRPRPRPMAEPRP,0.331
10,RRIRCRPPRLPRPRPRPHPGPRP,-0.156
11,RRIRRRPPRLPRPRPRPNVYPRP,0.0361
12,RRIRSRPPRLPRPRPRPTRLPRP,0.699
13,RRIRLRPPRLPRPRPRPWFYPRP,-0.785
14,RRIRSRPPRLPRPRPRPYRRPRP,-0.0841
15,RRIRHRPPRLPRPRPRPTFAPRP,3.26
16,RRIRQRPPRLPRPRPRPSFYPRP,-0.653
17,RRIRNRPPRLPRPRPRPANHPRP,-0.208
18,RRIRIRPPRLPRPRPRPIIGPRP,-0.13
19,RRIRTRPPRLPRPRPRPTWMPRP,-0.0339
20,RRIRGRPPRLPRPRPRPIKMPRP,0.441
21,RRIRCRPPRLPRPRPRPIRTPRP,-0.673
22,RRIRGRPPRLPRPRPRPHNPPRP,-0.0429
23,RRIRWRPPRLPRPRPRPQNTPRP,0.591
24,RRIRNRPPRLPRPRPRPVQFPRP,-0.124
25,RRIRWRPPRLPRPRPRPMYNPRP,-0.387

row,Sequence,shrunken log2 fold change
1,RRIRPRPPRLPRPRPRPTFDPRP,-0.0186
2,RRIRTRPPRLPRPRPRPCYRPRP,-0.0575
3,RRIRHRPPRLPRPRPRPYACPRP,-0.225
4,RRIRERPPRLPRPRPRPIDWPRP,-0.0206
5,RRIRWRPPRLPRPRPRPKGNPRP,0.514
6,RRIRTRPPRLPRPRPRPHPRPRP,0.467
7,RRIRWRPPRLPRPRPRPQPQPRP,0.417
8,RRIRARPPRLPRPRPRPLTTPRP,0.463
9,RRIRGRPPRLPRPRPRPVSDPRP,1.26
10,RRIRVRPPRLPRPRPRPFDIPRP,0.145
11,RRIRNRPPRLPRPRPRPCAPPRP,-0.436
12,RRIRGRPPRLPRPRPRPLRQPRP,0.62
13,RRIRSRPPRLPRPRPRPPQGPRP,0.39
14,RRIRDRPPRLPRPRPRPFIMPRP,-0.147
15,RRIRKRPPRLPRPRPRPGHVPRP,-0.165
16,RRIRNRPPRLPRPRPRPCELPRP,-0.0966
17,RRIRMRPPRLPRPRPRPCPMPRP,-0.0993
18,RRIRKRPPRLPRPRPRPPVDPRP,0.0616
19,RRIRMRPPRLPRPRPRPHRDPRP,0.169
20,RRIRGRPPRLPRPRPRPDGSPRP,0.85
21,RRIRVRPPRLPRPRPRPFVVPRP,-0.107
22,RRIRCRPPRLPRPRPRPGQPPRP,0.126
23,RRIRARPPRLPRPRPRPVIDPRP,-0.066
24,RRIRGRPPRLPRPRPRPWILPRP,0.112
25,RRIRKRPPRLPRPRPRPCDWPRP,-0.0282

row,Sequence,shrunken log2 fold change
1,RRIRCRPPRLPRPRPRPALHPRP,0.179
2,RRIRNRPPRLPRPRPRPFKKPRP,-0.263
3,RRIRKRPPRLPRPRPRPQALPRP,0.228
4,RRIRKRPPRLPRPRPRPTKYPRP,-0.106
5,RRIRFRPPRLPRPRPRPQMVPRP,-0.0194
6,RRIRSRPPRLPRPRPRPDRRPRP,-0.0434
7,RRIRQRPPRLPRPRPRPFQDPRP,-0.195
8,RRIRDRPPRLPRPRPRPSLYPRP,0.266
9,RRIRHRPPRLPRPRPRPEQVPRP,-0.0321
10,RRIRERPPRLPRPRPRPVNPPRP,-0.0961
11,RRIRNRPPRLPRPRPRPNATPRP,-0.185
12,RRIRCRPPRLPRPRPRPPMEPRP,0.245
13,RRIRGRPPRLPRPRPRPTLNPRP,0.835
14,RRIRYRPPRLPRPRPRPNLSPRP,-0.0996
15,RRIRSRPPRLPRPRPRPNMQPRP,-0.0719
16,RRIRKRPPRLPRPRPRPRVRPRP,0.755
17,RRIRERPPRLPRPRPRPNFGPRP,0.0437
18,RRIRVRPPRLPRPRPRPLWDPRP,0.00404
19,RRIRVRPPRLPRPRPRPEQQPRP,0.0394
20,RRIRIRPPRLPRPRPRPRIYPRP,0.00994
21,RRIRIRPPRLPRPRPRPVHHPRP,-0.732
22,RRIRFRPPRLPRPRPRPCCGPRP,-0.221
23,RRIRHRPPRLPRPRPRPQNMPRP,-0.731
24,RRIRLRPPRLPRPRPRPSDTPRP,-0.142
25,RRIRSRPPRLPRPRPRPWCCPRP,-0.544

# From the supplement of paper PMC9112550, “Optimization of the antimicrobial peptide Bac7 by deep mutational scanning” (BMC Biology, 2022)
